This is an account of results in paper PMC6101539 (Nucleic Acids Research, 2018).

By Kd is commonly meant the concentration at which binding is half-saturated. Lower therefore signals a tighter complex.

The target in one data set is T1, RarA (Bacillus subtilis, UniProt O34528 1-421).
T1 sequence: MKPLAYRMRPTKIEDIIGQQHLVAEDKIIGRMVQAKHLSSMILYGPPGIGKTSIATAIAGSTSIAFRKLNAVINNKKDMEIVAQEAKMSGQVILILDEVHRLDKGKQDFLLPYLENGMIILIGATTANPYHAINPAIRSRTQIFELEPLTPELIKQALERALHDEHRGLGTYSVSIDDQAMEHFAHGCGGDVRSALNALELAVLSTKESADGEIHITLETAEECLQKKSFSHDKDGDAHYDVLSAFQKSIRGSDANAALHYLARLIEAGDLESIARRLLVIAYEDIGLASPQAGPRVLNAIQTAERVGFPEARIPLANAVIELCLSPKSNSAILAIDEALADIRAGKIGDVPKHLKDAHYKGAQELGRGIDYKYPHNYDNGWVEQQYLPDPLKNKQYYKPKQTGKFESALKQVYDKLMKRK
The data set can be described thus: EMSA. (Mobility shift assays separate free from complexed probe on a gel.)

The target in data set [1] is T2, Bacillus subtilis RarA K51A (Walker A motif mutant) (B. subtilis, UniProt O34528 1-421, K51A).
T2 sequence (looked up): T1 sequence with K51A
Description: native gel or EMSA.

Data set [2] concerns the target T3, Bacillus subtilis RarA (replication associated recombination protein A) (B. subtilis, UniProt O34528 1-421).
T3 sequence (looked up): T1 sequence
Description: native gel or EMSA.

The target in another data set is T4, SsbB (Bacillus subtilis, UniProt C0SPB6 1-113).
T4 sequence: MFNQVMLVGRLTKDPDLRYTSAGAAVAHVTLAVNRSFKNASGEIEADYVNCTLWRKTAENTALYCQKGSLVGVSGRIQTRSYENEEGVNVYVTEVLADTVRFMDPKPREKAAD
The data set can be described thus: EMSA.

For another data set, the target named is T5, RarA;SsbA (Bacillus subtilis;Bacillus subtilis, UniProt O34528;P37455 1-421;1-172, |).
T5 sequence 1: T1 sequence
T5 sequence 2: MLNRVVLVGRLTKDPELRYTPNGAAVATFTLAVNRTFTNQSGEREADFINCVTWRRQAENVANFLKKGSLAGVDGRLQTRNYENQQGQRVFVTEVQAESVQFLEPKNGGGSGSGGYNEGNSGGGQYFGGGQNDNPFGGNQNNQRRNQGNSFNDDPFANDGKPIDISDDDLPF
Description: EMSA.

In the next data set the target is T6, RarA K51A;SsbA (Bacillus subtilis;Bacillus subtilis, UniProt O34528;P37455 1-421;1-172, K51A|).
T6 sequence 1: T1 sequence with K51A
T6 sequence 2: T5 sequence 2
The data set can be described thus: EMSA.

The target in data set [3] is T7, RarA;SsbBA chimera (SsbB*) (Bacillus subtilis;Bacillus subtilis, UniProt O34528;C0SPB6 1-421;1-113+P37455:164-172, |internal_change).
T7 sequence 1: T1 sequence
T7 sequence 2: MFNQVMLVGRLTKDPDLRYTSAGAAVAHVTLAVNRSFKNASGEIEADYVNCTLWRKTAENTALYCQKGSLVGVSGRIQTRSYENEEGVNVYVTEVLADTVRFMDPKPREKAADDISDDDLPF
Description: EMSA.

A further data set has as its target T8, RarA;PriA (Bacillus subtilis;Bacillus subtilis, UniProt O34528;P94461 1-421;1-805, |).
T8 sequence 1: T1 sequence
T8 sequence 2: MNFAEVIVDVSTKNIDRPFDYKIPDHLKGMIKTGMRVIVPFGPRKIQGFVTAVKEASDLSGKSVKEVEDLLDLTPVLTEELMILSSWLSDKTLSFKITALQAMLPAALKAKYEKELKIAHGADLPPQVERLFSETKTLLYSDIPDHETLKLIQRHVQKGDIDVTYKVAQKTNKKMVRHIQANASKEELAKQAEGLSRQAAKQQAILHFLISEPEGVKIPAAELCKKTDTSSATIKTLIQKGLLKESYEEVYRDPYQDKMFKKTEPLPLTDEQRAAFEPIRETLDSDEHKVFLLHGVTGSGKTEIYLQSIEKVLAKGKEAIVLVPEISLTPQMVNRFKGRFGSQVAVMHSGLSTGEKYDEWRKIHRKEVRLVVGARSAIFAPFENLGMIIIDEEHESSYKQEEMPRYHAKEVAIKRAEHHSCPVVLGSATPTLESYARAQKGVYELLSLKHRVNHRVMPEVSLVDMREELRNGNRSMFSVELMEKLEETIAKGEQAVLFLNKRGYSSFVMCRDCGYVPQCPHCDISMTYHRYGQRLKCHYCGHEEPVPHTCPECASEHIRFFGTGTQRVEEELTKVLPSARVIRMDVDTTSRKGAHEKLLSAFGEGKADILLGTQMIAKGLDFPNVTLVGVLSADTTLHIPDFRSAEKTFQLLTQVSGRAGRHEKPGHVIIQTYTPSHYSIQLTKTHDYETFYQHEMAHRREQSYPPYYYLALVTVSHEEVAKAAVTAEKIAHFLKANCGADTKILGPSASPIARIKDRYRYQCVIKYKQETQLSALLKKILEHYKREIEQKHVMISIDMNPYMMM
The data set can be described thus: EMSA.

The target in another data set is T9, PriA (Bacillus subtilis, UniProt P94461 1-805).
T9 sequence: T8 sequence 2
Description: EMSA.

Data set [4] has as its target T10, SsbA (Bacillus subtilis, UniProt P37455 1-172).
T10 sequence: T5 sequence 2
Description: EMSA.

Data set [5] has as its target T10, SsbA. The data set can be described thus: EMSA. This is another data set of the same source.

Changes are numbered by the printed parent chain. Where two headings read alike, the source gives them in different places.

B1: dsDNA (100U/100D) (dsDNA)
DNA 1: GGGCGAATTGGGCCCGACGTCGCATGCTCCTCTAGACTCGAGGAATTCGGTACCCCGGGTTCGAAATCGATAAGCTTACAGTCTCCATTTAAAGGACAAG
DNA 2: CTTGTCCTTTAAATGGAGACTGTAAGCTTATCGATTTCGAACCCGGGGTACCGAATTCCTCGAGTCTAGAGGAGCATGCGACGTCGGGCCCAATTCGCCC
B1: the Kd in the data set with RarA is around 37 nM.

B2: Bacillus subtilis SsbA (single stranded binding protein A) (natural protein, B. subtilis, UniProt P37455 1-172, looked up)
chain: T5 sequence 2
On to B2, for which the binding result in data set [1] and in [2] was “binds” throughout.

B3: SsbBA chimera (SsbB with the last 9 terminal acidic residues of SsbA) (other, B. subtilis, UniProt C0SPB6 1-113, looked up)
chain: T7 sequence 2
As for B3, the binding result in data set [2] was “binds”.

B4: 91-nt ssDNA (F1) (ssDNA)
DNA: TATAAAAAAAGCCAAGCTTGCATGCCTGCAGGTCGACTCTAGAGGATCCCCGGGTACCGAGCTCGAATTCACTGGCCGTCGTTTTACAACG
As for B4, the Kd is around 6 nM with SsbB and around 12 nM with RarA. Further, the binding result (in the data set with RarA;SsbA; with RarA K51A;SsbA; in data set [3]) was “binds” in each case.

B5: replicated fork (F1/F2/F3) (dsDNA)
DNA 1: B4 DNA
DNA 2: AATTCGTTGTAAAACGACGGCCAGTGAATTCGAGCTCGGTACCCGCCAGCCACAGTCAGACACACACACACTACACACAAAAAAAAAAA
DNA 3: TTTTTTTTTTTGTGTGTAGTGTGTGTGTGTCTGACTGTGGCTGG
Take B5: the Kd with RarA was around 19 nM; with PriA, around 3 nM. In addition, the binding result in the data set with RarA;PriA, in the data set with RarA;SsbA and in the data set with SsbA [4] was “binds” each time.

B6: fork DNA (F1/F2) (dsDNA)
DNA 1: B4 DNA
DNA 2: B5 DNA 2
In the case of B6, the binding result in the data set with SsbA [5] and in the data set with RarA;SsbA was “binds” each time. Also, the Kd in the data set with RarA was around 12 nM.
